# B1: Actin cytoskeleton-regulatory complex protein SLA1 (Saccharomyces cerevisiae), P32790 (parent)
# chain: MTVFLGIYRAVYAYEPQTPEELAIQEDDLLYLLQKSDIDDWWTVKKRVIGSDSEEPVGLVPSTYIEEAPVLKKVRAIYDYEQVQNADEELTFHENDVFDVFDDKDADWLLVKSTVSNEFGFIPGNYVEPENGSTSKQEQAPAAAEAPAATPAAAPASAAVLPTNFLPPPQHNDRARMMQSKEDQAPDEDEEGPPPAMPARPTATTETTDATAAAVRSRTRLSYSDNDNDDEEDDYYYNSNSNNVGNHEYNTEYHSWNVTEIEGRKKKKAKLSIGNNKINFIPQKGTPHEWSIDKLVSYDNEKKHMFLEFVDPYRSLELHTGNTTTCEEIMNIIGEYKGASRDPGLREVEMASKSKKRGIVQYDFMAESQDELTIKSGDKVYILDDKKSKDWWMCQLVDSGKSGLVPAQFIEPVRDKKHTESTASGIIKSIKKNFTKSPSRSRSRSRSKSNANASWKDDELQNDVVGSAAGKRSRKSSLSSHKKNSSATKDFPNPKKSRLWVDRSGTFKVDAEFIGCAKGKIHLHKANGVKIAVAADKLSNEDLAYVEKITGFSLEKFKANDGSSSRGTDSRDSERERRRRLKEQEEKERDRRLKERELYELKKARELLDEERSRLQEKELPPIKPPRPTSTTSVPNTTSVPPAESSNNNNSSNKYDWFEFFLNCGVDVSNCQRYTINFDREQLTEDMMPDINNSMLRTLGLREGDIVRVMKHLDKKFGRENIASIPTNATGNMFSQPDGSLNVATSPETSLPQQLLPQTTSPAQTAPSTSAETDDAWTVKPASKSESNLLSKKSEFTGSMQDLLDLQPLEPKKAAASTPEPNLKDLEPVKTGGTTVPAAPVSSAPVSSAPAPLDPFKTGGNNILPLSTGFVMMPMITGGDMLPMQRTGGFVVPQTTFGMQSQVTGGILPVQKTGNGLIPISNTGGAMMPQTTFGAAATVLPLQKTGGGLIPIATTGGAQFPQTSFNVQGQQQLPTGSILPVQKTANGLISANTGVSMPTVQRTGGTMIPQTSFGVSQQLTGGAMMTQPQNTGSAMMPQTSFNAVPQITGGAMMPQTSFNALPQVTGGAMMPLQRTGGALNTFNTGGAMIPQTSFSSQAQNTGGFRPQSQFGLTLQKTGGIAPLNQNQFTGGAMNTLSTGGVLQQQQPQTMNTFNTGGVMQELQMMTTFNTGGAMQQPQMMNTFNTDGIMQQPQMMNTFNTGGAMQQPQQQALQNQPTGFGFGNGPQQSRQANIFNATASNPFGF
# Experiments:
# clh_yeast CHC1, P22137 [1] = variants of: B1; details: with clh_yeast CHC1, P22137
# Chain of clh_yeast CHC1, P22137 (P22137 whole entry): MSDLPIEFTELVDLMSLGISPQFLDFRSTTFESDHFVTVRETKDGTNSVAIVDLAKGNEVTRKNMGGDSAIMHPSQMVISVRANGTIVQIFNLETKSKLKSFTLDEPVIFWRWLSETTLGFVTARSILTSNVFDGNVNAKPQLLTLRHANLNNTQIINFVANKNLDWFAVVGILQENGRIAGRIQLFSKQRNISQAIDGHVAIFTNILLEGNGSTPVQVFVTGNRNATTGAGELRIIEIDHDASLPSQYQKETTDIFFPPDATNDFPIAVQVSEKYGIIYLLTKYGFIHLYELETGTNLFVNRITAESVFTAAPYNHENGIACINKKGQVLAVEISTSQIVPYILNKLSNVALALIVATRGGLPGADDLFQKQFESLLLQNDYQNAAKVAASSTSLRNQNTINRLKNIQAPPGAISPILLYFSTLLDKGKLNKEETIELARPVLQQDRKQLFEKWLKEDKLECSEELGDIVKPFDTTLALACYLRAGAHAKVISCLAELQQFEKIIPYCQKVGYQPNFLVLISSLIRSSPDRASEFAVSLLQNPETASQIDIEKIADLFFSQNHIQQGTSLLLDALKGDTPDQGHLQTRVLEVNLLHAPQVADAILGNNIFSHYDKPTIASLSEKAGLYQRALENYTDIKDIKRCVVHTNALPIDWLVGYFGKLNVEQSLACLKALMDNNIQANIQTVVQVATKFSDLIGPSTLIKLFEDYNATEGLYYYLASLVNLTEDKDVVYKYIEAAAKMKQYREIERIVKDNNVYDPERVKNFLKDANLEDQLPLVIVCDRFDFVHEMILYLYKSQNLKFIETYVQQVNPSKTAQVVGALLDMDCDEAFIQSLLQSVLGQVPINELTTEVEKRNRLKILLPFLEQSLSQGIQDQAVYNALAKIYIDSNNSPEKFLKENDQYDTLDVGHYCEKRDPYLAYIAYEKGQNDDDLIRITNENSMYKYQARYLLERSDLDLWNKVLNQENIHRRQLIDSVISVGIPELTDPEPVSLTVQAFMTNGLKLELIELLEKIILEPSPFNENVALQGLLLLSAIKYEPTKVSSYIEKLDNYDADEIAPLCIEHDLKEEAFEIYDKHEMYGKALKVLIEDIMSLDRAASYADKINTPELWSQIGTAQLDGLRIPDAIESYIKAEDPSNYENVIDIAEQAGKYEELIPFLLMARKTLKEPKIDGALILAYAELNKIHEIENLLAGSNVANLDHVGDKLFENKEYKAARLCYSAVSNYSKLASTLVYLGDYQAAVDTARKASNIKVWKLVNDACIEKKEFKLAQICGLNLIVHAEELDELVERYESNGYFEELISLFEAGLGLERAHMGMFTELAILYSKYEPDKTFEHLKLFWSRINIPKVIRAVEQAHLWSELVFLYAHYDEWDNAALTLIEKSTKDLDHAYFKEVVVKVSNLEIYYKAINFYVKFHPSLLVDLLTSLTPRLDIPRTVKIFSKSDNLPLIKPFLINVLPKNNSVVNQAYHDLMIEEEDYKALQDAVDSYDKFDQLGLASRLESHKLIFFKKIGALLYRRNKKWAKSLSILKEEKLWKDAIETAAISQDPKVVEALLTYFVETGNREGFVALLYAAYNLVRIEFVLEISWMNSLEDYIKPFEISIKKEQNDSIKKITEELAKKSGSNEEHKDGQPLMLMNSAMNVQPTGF
# clh_yeast CHC1, P22137 [2] = variants of: B1; details: with clh_yeast CHC1, P22137; remark: listed apart in the source
Variant,"effect of a mutation on the interaction (clh_yeast CHC1, P22137 [1])","effect of a mutation on the interaction (clh_yeast CHC1, P22137 [2])"
L804A,decreasing interaction,disrupting interaction
L803A,decreasing interaction,disrupting interaction
D805A,decreasing interaction,disrupting interaction
